From patent US20230312686A1 (Bristol-Myers Squibb, published 2023) come the findings set out here.

In test [1] the target is T1, Human glypican-3, recombinant, construct not stated (human, UniProt P51654 25-559, limits assumed, biotin in the positional scanning (site not stated)).
T1 construct: also called recombinant GPC3; human GPC3
Description: ELISA, recombinant GPC3.

The target in test [2] is T2, Recombinant human glypican-3 (aa 1-559), His-tagged, R&D Systems (human, UniProt P51654 25-559).
T2 construct: also called huGPC3; Hu GPC3-His
Description: SPR, as in the previous Examples. Here is the method: (§1) For off-rate measurements, single 200 nM adnectin/AdxDC concentrations were injected using identical conditions. One 30s injection of 10 mM glycine pH 1.7 was used to remove bound adnectin and regenerate the GPC3 surfaces between assay cycles.
(§2) Rate constants kₐ (kₒₙ) and kd (koff) were derived from reference-subtracted sensorgrams fit to a 1:1 binding model in Biacore T100 Evaluation Software v2.0.4 (GE Healthcare). The affinity constant, KD was calculated from the ratio of rate constants kd/kₐ.
(§3) FITC Labeling: ADX_6077_F02 and non-binding control Adnectin were reduced with DTT or TCEP followed by G25 gel filtration chromatography or dialysis. Excess Fluorescein-5-maleimide reagent (Thermo Scientific) was then added and the mixture incubated at room temperature for approximately 2 hours followed by G25 gel filtration chromatography or extensive dialysis (3-4 buffer changes). The resulting degree of labeling was measured by absorbance following the manufacturer's instructions and/or by mass spectrometry. The binding affinities of FITC-labeled and PEGylated […] for human and murine GPC3 was evaluated as described in the previous Examples, and the results are summarized in Table 13.
A general note: In SPR one partner is held on a chip, and binding of the other changes the refractive index at the surface.

The target in test [3] is T3, Recombinant murine glypican-3 (aa 25-557), R&D Systems (murine, UniProt Q8CFZ4 25-557).
T3 construct: also called muGPC3; Mu GPC3-His
Description: SPR, as in the previous Examples. On the procedure: as §1, §2, §3

For test [4], the target named is T2, Recombinant human glypican-3 (aa …). Description: SPR 1-point off-rate, alkylated mutant vs parent.
The target of test [5] is T3, Recombinant murine glypican-3 (aa …). Put plainly: SPR 1-point off-rate, alkylated mutant vs parent.
The target in test [6] is T2, Recombinant human glypican-3 (aa …). Description: SPR, Biacore T100, GPC3-His immobilised, 1:1 fit. Here is the method: (§4) The binding affinities of the alkylated GPC3 DG mutant adnectins for human and murine GPC3 were further evaluated by Biacore T100 using HBS-P+ running buffer with direct immobilization of human and mouse GPC3 proteins [Hu (Fc 2,3) and Mu (Fc 4) GPC3-His (R&D Systems)] with a 200-1.56 nM series injected for 180s association, 600s dissociation.

Test [7] concerns the target T3, Recombinant murine glypican-3 (aa …). Put plainly: SPR, Biacore T100, GPC3-His immobilised, 1:1 fit. On the procedure:
as §4

Numbering of substitutions follows the chain as printed. Values joined by “and” are separate entries in the source; they are usually repeats but may differ in a detail not shown here. Equal values may be shown once.

T2 sequence (P51654 other isoform, or with tags, fused parts or gaps): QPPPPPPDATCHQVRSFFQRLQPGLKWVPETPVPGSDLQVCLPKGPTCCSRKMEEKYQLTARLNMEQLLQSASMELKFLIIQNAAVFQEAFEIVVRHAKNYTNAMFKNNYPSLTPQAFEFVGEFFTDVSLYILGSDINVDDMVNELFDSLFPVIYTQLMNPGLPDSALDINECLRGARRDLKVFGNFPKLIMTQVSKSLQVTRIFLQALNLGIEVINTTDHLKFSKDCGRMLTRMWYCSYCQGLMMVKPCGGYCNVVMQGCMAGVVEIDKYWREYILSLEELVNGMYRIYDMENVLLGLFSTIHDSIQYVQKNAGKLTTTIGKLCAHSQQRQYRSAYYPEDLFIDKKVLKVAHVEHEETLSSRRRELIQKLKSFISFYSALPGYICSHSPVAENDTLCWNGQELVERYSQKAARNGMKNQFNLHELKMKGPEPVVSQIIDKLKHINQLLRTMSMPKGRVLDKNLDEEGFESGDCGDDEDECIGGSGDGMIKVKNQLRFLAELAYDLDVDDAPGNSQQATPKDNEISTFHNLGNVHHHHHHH
T1 sequence (P51654 25-559 limits assumed): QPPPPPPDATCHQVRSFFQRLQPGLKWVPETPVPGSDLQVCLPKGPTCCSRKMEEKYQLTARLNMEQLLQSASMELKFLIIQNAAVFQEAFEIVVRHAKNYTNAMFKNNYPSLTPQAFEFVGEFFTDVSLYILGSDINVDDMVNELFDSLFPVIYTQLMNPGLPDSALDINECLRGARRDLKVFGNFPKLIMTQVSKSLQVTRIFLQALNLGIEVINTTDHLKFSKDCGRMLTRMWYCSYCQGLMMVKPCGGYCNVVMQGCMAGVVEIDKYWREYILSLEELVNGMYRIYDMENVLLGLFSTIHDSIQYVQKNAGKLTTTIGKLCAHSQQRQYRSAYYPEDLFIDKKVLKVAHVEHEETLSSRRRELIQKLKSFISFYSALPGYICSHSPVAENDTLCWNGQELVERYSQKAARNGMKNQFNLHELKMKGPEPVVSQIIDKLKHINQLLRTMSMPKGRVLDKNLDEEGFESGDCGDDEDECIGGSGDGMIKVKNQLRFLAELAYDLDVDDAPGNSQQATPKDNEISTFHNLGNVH
T3 sequence (Q8CFZ4 25-557 limits assumed, form in doubt): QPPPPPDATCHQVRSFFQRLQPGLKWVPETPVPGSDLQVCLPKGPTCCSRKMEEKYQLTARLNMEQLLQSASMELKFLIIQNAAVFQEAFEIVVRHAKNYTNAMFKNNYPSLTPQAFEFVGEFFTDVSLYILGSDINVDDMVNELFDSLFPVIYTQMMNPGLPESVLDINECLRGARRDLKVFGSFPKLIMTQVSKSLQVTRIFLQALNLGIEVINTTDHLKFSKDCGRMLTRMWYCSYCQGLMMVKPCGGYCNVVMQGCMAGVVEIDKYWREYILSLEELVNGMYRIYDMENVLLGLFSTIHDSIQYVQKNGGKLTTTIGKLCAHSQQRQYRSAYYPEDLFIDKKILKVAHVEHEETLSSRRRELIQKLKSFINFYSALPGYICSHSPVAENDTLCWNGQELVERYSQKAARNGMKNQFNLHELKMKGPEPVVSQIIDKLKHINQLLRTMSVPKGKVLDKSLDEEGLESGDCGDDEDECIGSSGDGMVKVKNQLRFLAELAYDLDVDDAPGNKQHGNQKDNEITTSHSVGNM

B1: ADX_4606_F06 (designed binder)
chain: MGVSDVPRDLEVVAATPTSLLISWNSGHSGQYYRITYGETGGNSPVQEFTVPRYGYTATISGLKPGVDYTITVYAVAHSEASAPISINYRTEIDKPSQ
B1: the “ELISA OD” value in test [1] stood at 1.73 OD.

B2: ADX_5273_C01 (designed binder)
chain: MGVSDVPRDLEVVAATPTSLLISWSDPYEEERYYRITYGETGGNSPVQEFTVPAFHTTATISGLKPGVDYTITVYAVTYKHKYAYYYPPISINYRTEIDKPSQ
Consider B2, for which, in test [1], the “ELISA OD” value is 1.35 OD.

B3: ADX_5274_E01 (designed binder)
chain: MGVSDVPRDLEVVAATPTSLLISWSGDYHPHRYYRITYGETGGNSPVQEFTVPGEHETATISGLKPGVDYTITVYAVTYDGEKADKYPPISINYRTEIDKPSQ
On to B3, for which the “ELISA OD” value in test [1] was determined as 2.37 OD.

B4: ADX_4578_F03 (designed binder)
chain: MGVSDVPRDLEVVAATPTSLLISWHPPHPNIVSYHIYYGETGGNSPVQEFTVEGSKSTAKISGLKPGVDYTITVYAVAPEIEKYYQIWINYRTEGSGS
B4: the “ELISA OD” value in test [1] is 0.6 OD.

B5: ADX_5273_D01 (designed binder)
chain: MGVSDVPRDLEVVAATPTSLLISWEPSYKDDRYYRITYGETGGNSPVQEFTVPSFHQTATISGLKPGVDYTITVYAVTYEPDEYYFYYPISINYRTEIDKPSQ
Take B5: in test [1], the “ELISA OD” value was 2.1 OD.

B6: ADX_4578_B06 (designed binder)
chain: MGVSDVPRDLEVVAATPTSLLISWFPDRYVYYITYGETGGNSPVQEFTVEGHKQTAYISGLKPGVDYTITVYAIYYYPDDFQGYPQPISINYRTEGSGS
Regarding B6, the “ELISA OD” value in test [1] was determined as 0.17 OD.

B7: ADX_4578_H08 (designed binder)
chain: MGVSDVPRDLEVVAATPTSLLISWSGYDYGDSYYRITYGETGGNSPVQEFTVPDGSNTATISGLKPGVDYTITVYAVEAYGKGYTRYTPISINYRTEIDKPSQ
Consider B7, for which the “ELISA OD” value in test [1] came to 1.02 OD.

B8: 6077_F02-FITC (designed binder)
chain: MGVSDVPRDLEVVAATPTSLLISWSDDYHAHRYYRITYGETGGNSPVQEFTVPGEHVTATISGLKPGVDYTITVYAVTYDGEKAATDWSISINYRTPCHHHHHH
modifications: fluorescein-5-maleimide on the C-terminal cysteine
notes: also called FITC-labeled ADX_6077_F02
The Kd is the equilibrium constant for the complex coming apart. What is called koff is the rate constant with which the complex falls apart. As a reminder, the kon is a measure of how fast the partners come together. In the case of B8, in test [2], the Kd came out at 6.11 nM, the koff came to 0.000498 s⁻¹ and the kon was 81500 M⁻¹ s⁻¹. Moreover, in test [3], the equilibrium dissociation constant (Kd) stood at 3.97 nM, the koff is 0.000446 s⁻¹ and the kon came to 112000 M⁻¹ s⁻¹.

B9: 6077_F02-PEG3.4 (designed binder)
chain: B8 chain
modifications: PEG3.4, site not stated
notes: The PEGylation is not described; also called PEGylated anti-GPC3 adnectin (PEG3.4)
Take B9: in test [2], the Kd was determined as 8.14 nM, the koff was determined as 0.000584 s⁻¹ and the kon is 71800 M⁻¹ s⁻¹. Also, in test [3], the Kd was found to be 5.12 nM, the off-rate constant (koff) is 0.000523 s⁻¹ and the kon turned out to be 102000 M⁻¹ s⁻¹.

B10: 6077_F02.dPEG (designed binder)
chain: B8 chain
modifications: dPEG, site and size not stated
notes: The PEGylation is not described; also called PEGylated anti-GPC3 adnectin (dPEG)
For the molecule B10, in test [2], the Kd is 8.19 nM and 8.1 nM; the koff is 0.000602 s⁻¹ and 0.000607 s⁻¹; the association rate constant (kon) was 73500 M⁻¹ s⁻¹ and 75000 M⁻¹ s⁻¹. Moreover, in test [3], the dissociation constant Kd is 5.43 nM and 5.26 nM; the koff was 0.000559 s⁻¹ and 0.000557 s⁻¹; the kon is 103000 M⁻¹ s⁻¹ and 106000 M⁻¹ s⁻¹.

B11: ADX_6077_F02 DG→DV mutant, alkylated (designed binder)
chain: GVSDVPRDLEVVAATPTSLLISWSDDYHAHRYYRITYGETGGNSPVQEFTVPGEHVTATISGLKPGVDYTITVYAVTYDVEKAATDWSISINYRTPC
modifications: C-terminal cysteine alkylated
notes: also called P1-055672
B11: in test [4], the “huGPC3 koff (mut/par)” value worked out at 7.9 fold. In addition, the “muGPC3 koff (mut/par)” value in test [5] came out at 7 fold. In test [6], the “Fold affinity (KD) difference vs alkylated parent” value came to 7.8 fold, the Kd was 43.5 nM, the koff stood at 0.00309 s⁻¹ and the kon stood at 71000 M⁻¹ s⁻¹. In addition, in test [7], the “Fold affinity (KD) difference vs alkylated parent” value was 7.8 fold, the dissociation constant (Kd) stood at 30 nM, the koff came out at 0.0025 s⁻¹ and the kon came to 85000 M⁻¹ s⁻¹.

B12: ADX_6077_F02 DG→GG mutant, alkylated (designed binder)
chain: B11 chain with D79G, V80G
modifications: C-terminal cysteine alkylated
notes: also called P1-055670
As for B12, the “huGPC3 koff (mut/par)” value in test [4] worked out at 14 fold. In addition, in test [5], the “muGPC3 koff (mut/par)” value worked out at 12 fold.
